Data reported in publication PMC10625565.

Target: GST-PpROP4CA (G15V)
Assay: pull-down (MBP pull-down, Coomassie-stained SDS-PAGE, band quantification)
Details: chain shown with the change; three replicates; parent: est. 0.31; read off a plot

GST-PpROP4CA (G15V), sequence (chain, as listed by the source G15V): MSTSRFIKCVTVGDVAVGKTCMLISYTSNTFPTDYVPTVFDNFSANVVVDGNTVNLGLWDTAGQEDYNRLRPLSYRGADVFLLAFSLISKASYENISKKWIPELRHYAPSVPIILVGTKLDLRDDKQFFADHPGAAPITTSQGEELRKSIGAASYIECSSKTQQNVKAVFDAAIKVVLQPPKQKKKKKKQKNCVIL

Row | other: Protein ratio | Binder
1 | 0.25 | MBP-PpRopGAP1 (wild type), A0A2K1KNT6 R239L (protein) MTQVLPTQIHLGSFTPDQSESEDYVNALHYVSDTDTDGYSGNHASPMILGDATISIRELCKEPEARKSGLSHSSSFSSITRGRWGEIGARSRNGSLNRRHSSFRSGSFNRSNNDQERERSAQLSLVALLLATVRRSVLTMCQDVEEGDESSLEIGWPTDVQHVAHVTFDRYNGFLGLPQEFEVEVPGRVPSASQSVFGVSAESMQCSYDHNGNSVPTILLLMQERLYHQGGLKAEGIFLINAENSHHEHVRDQLNKGIVPMDIDSYCLAGLIKAWFRELPQGVLDVLTPEQVLECHTEEESVALVKLLPPTQAALLDWAVNLMADVVQDEVVNKMNARNIAMVFAPNMTQMADPLTALMHAVQVMNLLKTLILRTLKDREEAILEQAQGLTRAEASEGDEPDSECNNVVLTSQERQNSLREEEASKVDCDEYSQRILIPVKRNTKVNSISKSGNLVNTIDHNNQRVEAW
2 | 0.1 | MBP-PpRopGAP1 (wild type), A0A2K1KNT6 H165A (protein) MTQVLPTQIHLGSFTPDQSESEDYVNALHYVSDTDTDGYSGNHASPMILGDATISIRELCKEPEARKSGLSHSSSFSSITRGRWGEIGARSRNGSLNRRHSSFRSGSFNRSNNDQERERSAQLSLVALLLATVRRSVLTMCQDVEEGDESSLEIGWPTDVQHVAAVTFDRYNGFLGLPQEFEVEVPGRVPSASQSVFGVSAESMQCSYDHNGNSVPTILLLMQERLYHQGGLKAEGIFRINAENSHHEHVRDQLNKGIVPMDIDSYCLAGLIKAWFRELPQGVLDVLTPEQVLECHTEEESVALVKLLPPTQAALLDWAVNLMADVVQDEVVNKMNARNIAMVFAPNMTQMADPLTALMHAVQVMNLLKTLILRTLKDREEAILEQAQGLTRAEASEGDEPDSECNNVVLTSQERQNSLREEEASKVDCDEYSQRILIPVKRNTKVNSISKSGNLVNTIDHNNQRVEAW
